Experimental data from paper PMC2965237 (Nucleic Acids Research, 2010).

Biological target: the molecule itself
Experiment: SEC

B1: RdgC protein (Escherichia coli), wild type (natural protein)
chain: not shown
Question: For B1, which “stoichiometry N” value is on record?
Answer: 2

B2: RdgC R118C (natural protein)
chain: not shown
Question: Does B2 bind?
Answer: binds

B3: RdgC Δfinger (P76G, Δ77–115, L116T) (natural protein)
chain: not shown
Question: Does B3 bind?
Answer: binds

B4: RdgC Δfinger R118C (natural protein)
chain: not shown
Question: Does B4 bind?
Answer: binds
